Laboratory results as given in US20260176358A1.

Columns and labels:
PACAP38 [1] = biological target: PACAP38 (UniProt P18509); experiment: competition ELISA, biotinylated PACAP38 to coated VPAC1-Fc
PACAP38 [2] = biological target: PACAP38 (UniProt P18509); experiment: competition ELISA, biotinylated PACAP38 to coated PAC1-Fc
PACAP27 = PACAP27 (UniProt P18509); experiment: ELISA, biotinylated peptide on streptavidin plate
VIP = VIP (UniProt P01282); experiment: ELISA, biotinylated peptide on streptavidin plate
Sequence of VIP (P01282 125-152 limits assumed): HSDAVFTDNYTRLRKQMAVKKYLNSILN

PACAP38 [3] = biological target: PACAP38 (UniProt P18509); experiment: ELISA, biotinylated peptide on streptavidin plate
PACAP38 [4] = biological target: PACAP38 (UniProt P18509); experiment: competition ELISA, biotinylated PACAP38 to coated VPAC2-Fc
CGRP = experiment: cell-based or functional assay

Sequence of PACAP38 (P18509 132-169 limits assumed): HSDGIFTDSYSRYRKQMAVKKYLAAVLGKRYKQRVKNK
Sequence of PACAP27 (P18509 132-158 limits assumed): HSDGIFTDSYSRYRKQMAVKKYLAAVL

## ALD-1910 (antibody)
PACAP38 [1]
  IC50: 0.65 nM
PACAP38 [2]
  IC50: 4.89 nM
PACAP27
  EC50: 0.15 nM
VIP
  EC50: 1.02 nM
PACAP38 [3]
  EC50: 0.07 nM
PACAP38 [4]
  IC50: 1.58 nM

## Fremanezumab (antibody)
CGRP
  IC50, inhibition of cAMP production in SK-N-MC cells: 40 nM

## LY-3451838 (antibody)
PACAP38 [1]
  IC50: 1.34 nM
PACAP38 [2]
  IC50: 6.46 nM
PACAP27
  EC50: 0.11 nM
VIP
  EC50: 9.58 nM
PACAP38 [3]
  EC50: 0.06 nM
PACAP38 [4]
  IC50: 1.42 nM
